The record followed here is US20260001928A1 (CORTERIA PHARMACEUTICALS, priority 2022, published 2026).

One may read the EC50 as the concentration that produces a half-maximal response.

*1 amine or outer side, *2 acyl side, *3 side chain or, on linkers, in order; H or OH if unused. Side-chain parts run from the residue outwards. [ ]: non-standard residue; d: D form. The star is where a group is joined. C20 diacid = O=C(O)CCCCCCCCCCCCCCCCCCC(=O)*; C18 diacid = O=C(O)CCCCCCCCCCCCCCCCC(=O)*; γGlu = O=C(O)[C@H](CCC(=O)[*:2])N[*:1]; Myristoyl = CCCCCCCCCCCCCC(=O)*; Api = NC1(C(=O)O)CCNCC1; AEEA = NCCOCCOCC(=O)O; Aib = CC(C)(N)C(=O)O

Test [1] concerns the target human corticotropin-releasing factor 2a (CRF2a receptor) (human), Q13324. As to the kind of experiment: cell-based or functional assay.
For the next test, the target named is T1, CRF1R receptor (UniProt P34998 24-415, limits assumed).
T1 sequence (looked up): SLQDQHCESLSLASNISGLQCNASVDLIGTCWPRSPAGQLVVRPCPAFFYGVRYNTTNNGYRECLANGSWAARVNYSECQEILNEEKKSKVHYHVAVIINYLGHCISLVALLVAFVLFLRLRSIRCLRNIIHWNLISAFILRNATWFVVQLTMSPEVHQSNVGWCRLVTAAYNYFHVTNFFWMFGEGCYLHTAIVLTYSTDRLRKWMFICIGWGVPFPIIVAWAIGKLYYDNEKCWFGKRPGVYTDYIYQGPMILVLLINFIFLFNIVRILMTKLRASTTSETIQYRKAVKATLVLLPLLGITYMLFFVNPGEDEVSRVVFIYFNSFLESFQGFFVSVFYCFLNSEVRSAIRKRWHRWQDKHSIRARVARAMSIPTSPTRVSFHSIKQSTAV
As to the kind of experiment: cell-based or functional assay.

Chain of human corticotropin-releasing factor 2a (CRF2a receptor) (human), Q13324 (Q13324 20-411): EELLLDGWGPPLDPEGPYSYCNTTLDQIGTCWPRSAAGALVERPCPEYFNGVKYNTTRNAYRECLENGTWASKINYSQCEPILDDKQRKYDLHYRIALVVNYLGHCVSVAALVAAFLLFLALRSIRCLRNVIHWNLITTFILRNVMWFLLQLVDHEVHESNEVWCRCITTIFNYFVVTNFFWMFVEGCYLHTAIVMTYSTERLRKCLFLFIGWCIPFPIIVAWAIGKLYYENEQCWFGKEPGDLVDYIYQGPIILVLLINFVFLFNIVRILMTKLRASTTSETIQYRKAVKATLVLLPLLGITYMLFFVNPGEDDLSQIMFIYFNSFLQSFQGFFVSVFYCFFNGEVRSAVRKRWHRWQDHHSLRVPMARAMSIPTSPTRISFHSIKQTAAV

B1: SEQ ID NO 92 (peptide)
peptide: Ac-VLSLD[dV]PIKLK([AEEA-AEEA-γGlu-C18 diacid])KILLEQEKQKKQREQAETNKQILAQV-NH2
SMILES: CC[C@H](C)[C@H](NC(=O)[C@H](CCC(N)=O)NC(=O)[C@H](CCCCN)NC(=O)[C@H](CC(N)=O)NC(=O)[C@@H](NC(=O)[C@H](CCC(=O)O)NC(=O)[C@H](C)NC(=O)[C@H](CCC(N)=O)NC(=O)[C@H](CCC(=O)O)NC(=O)[C@H](CCCNC(=N)N)NC(=O)[C@H](CCC(N)=O)NC(=O)[C@H](CCCCN)NC(=O)[C@H](CCCCN)NC(=O)[C@H](CCC(N)=O)NC(=O)[C@H](CCCCN)NC(=O)[C@H](CCC(=O)O)NC(=O)[C@H](CCC(N)=O)NC(=O)[C@H](CCC(=O)O)NC(=O)[C@H](CC(C)C)NC(=O)[C@H](CC(C)C)NC(=O)[C@@H](NC(=O)[C@H](CCCCN)NC(=O)[C@H](CCCCNC(=O)COCCOCCNC(=O)COCCOCCNC(=O)CC[C@H](NC(=O)CCCCCCCCCCCCCCCCC(=O)O)C(=O)O)NC(=O)[C@H](CC(C)C)NC(=O)[C@H](CCCCN)NC(=O)[C@@H](NC(=O)[C@@H]1CCCN1C(=O)[C@H](NC(=O)[C@H](CC(=O)O)NC(=O)[C@H](CC(C)C)NC(=O)[C@H](CO)NC(=O)[C@H](CC(C)C)NC(=O)[C@@H](NC(C)=O)C(C)C)C(C)C)[C@@H](C)CC)[C@@H](C)CC)[C@@H](C)O)C(=O)N[C@@H](CC(C)C)C(=O)N[C@@H](C)C(=O)N[C@@H](CCC(N)=O)C(=O)N[C@H](C(N)=O)C(C)C
With B1, the EC50 [nM] (cAMP) in test [1] was 2.3 nM. The “Emax (% I)” value with CRF1R receptor was determined as 5%.

B2: SEQ ID NO 227 (peptide)
peptide: Ac-IVLSLD[dV]PIGLK([γGlu-C20 diacid])KILLEQEKQKKQREQAETN[Api]QILAQV-NH2
SMILES: CC[C@H](C)[C@H](NC(C)=O)C(=O)N[C@H](C(=O)N[C@@H](CC(C)C)C(=O)N[C@@H](CO)C(=O)N[C@@H](CC(C)C)C(=O)N[C@@H](CC(=O)O)C(=O)N[C@@H](C(=O)N1CCC[C@H]1C(=O)N[C@H](C(=O)NCC(=O)N[C@@H](CC(C)C)C(=O)N[C@@H](CCCCNC(=O)CC[C@H](NC(=O)CCCCCCCCCCCCCCCCCCC(=O)O)C(=O)O)C(=O)N[C@@H](CCCCN)C(=O)N[C@H](C(=O)N[C@@H](CC(C)C)C(=O)N[C@@H](CC(C)C)C(=O)N[C@@H](CCC(=O)O)C(=O)N[C@@H](CCC(N)=O)C(=O)N[C@@H](CCC(=O)O)C(=O)N[C@@H](CCCCN)C(=O)N[C@@H](CCC(N)=O)C(=O)N[C@@H](CCCCN)C(=O)N[C@@H](CCCCN)C(=O)N[C@@H](CCC(N)=O)C(=O)N[C@@H](CCCNC(=N)N)C(=O)N[C@@H](CCC(=O)O)C(=O)N[C@@H](CCC(N)=O)C(=O)N[C@@H](C)C(=O)N[C@@H](CCC(=O)O)C(=O)N[C@H](C(=O)N[C@@H](CC(N)=O)C(=O)NC1(C(=O)N[C@@H](CCC(N)=O)C(=O)N[C@H](C(=O)N[C@@H](CC(C)C)C(=O)N[C@@H](C)C(=O)N[C@@H](CCC(N)=O)C(=O)N[C@H](C(N)=O)C(C)C)[C@@H](C)CC)CCNCC1)[C@@H](C)O)[C@@H](C)CC)[C@@H](C)CC)C(C)C)C(C)C
In test [1], B2 showed an EC50 [nM] (cAMP) of 0.2 nM. Moreover, in the test with CRF1R receptor, the “EC50” value was 1.74 nM and the “Emax (% I)” value amounted to 97%.

B3: SEQ ID NO 226 (peptide)
peptide: Ac-IVLSLD[dV]PIGLK([γGlu-C20 diacid])KILLEQEKQKKQREQAETN[Aib]QILAQV-NH2
SMILES: CC[C@H](C)[C@H](NC(C)=O)C(=O)N[C@H](C(=O)N[C@@H](CC(C)C)C(=O)N[C@@H](CO)C(=O)N[C@@H](CC(C)C)C(=O)N[C@@H](CC(=O)O)C(=O)N[C@@H](C(=O)N1CCC[C@H]1C(=O)N[C@H](C(=O)NCC(=O)N[C@@H](CC(C)C)C(=O)N[C@@H](CCCCNC(=O)CC[C@H](NC(=O)CCCCCCCCCCCCCCCCCCC(=O)O)C(=O)O)C(=O)N[C@@H](CCCCN)C(=O)N[C@H](C(=O)N[C@@H](CC(C)C)C(=O)N[C@@H](CC(C)C)C(=O)N[C@@H](CCC(=O)O)C(=O)N[C@@H](CCC(N)=O)C(=O)N[C@@H](CCC(=O)O)C(=O)N[C@@H](CCCCN)C(=O)N[C@@H](CCC(N)=O)C(=O)N[C@@H](CCCCN)C(=O)N[C@@H](CCCCN)C(=O)N[C@@H](CCC(N)=O)C(=O)N[C@@H](CCCNC(=N)N)C(=O)N[C@@H](CCC(=O)O)C(=O)N[C@@H](CCC(N)=O)C(=O)N[C@@H](C)C(=O)N[C@@H](CCC(=O)O)C(=O)N[C@H](C(=O)N[C@@H](CC(N)=O)C(=O)NC(C)(C)C(=O)N[C@@H](CCC(N)=O)C(=O)N[C@H](C(=O)N[C@@H](CC(C)C)C(=O)N[C@@H](C)C(=O)N[C@@H](CCC(N)=O)C(=O)N[C@H](C(N)=O)C(C)C)[C@@H](C)CC)[C@@H](C)O)[C@@H](C)CC)[C@@H](C)CC)C(C)C)C(C)C
The molecule B3 yielded an EC50 [nM] (cAMP) in test [1] of 0.18 nM. Moreover, in the test with CRF1R receptor, the “EC50” value was found to be 42.1 nM and the “Emax (% I)” value worked out at 82%.

B4: SEQ ID NO 225 (peptide)
peptide: Myristoyl-VLSLD[dV]PIKLK([γGlu-C20 diacid])KILLEQEKQKKQREQAETN[Aib]QILAQV-NH2
SMILES: CCCCCCCCCCCCCC(=O)N[C@H](C(=O)N[C@@H](CC(C)C)C(=O)N[C@@H](CO)C(=O)N[C@@H](CC(C)C)C(=O)N[C@@H](CC(=O)O)C(=O)N[C@@H](C(=O)N1CCC[C@H]1C(=O)N[C@H](C(=O)N[C@@H](CCCCN)C(=O)N[C@@H](CC(C)C)C(=O)N[C@@H](CCCCNC(=O)CC[C@H](NC(=O)CCCCCCCCCCCCCCCCCCC(=O)O)C(=O)O)C(=O)N[C@@H](CCCCN)C(=O)N[C@H](C(=O)N[C@@H](CC(C)C)C(=O)N[C@@H](CC(C)C)C(=O)N[C@@H](CCC(=O)O)C(=O)N[C@@H](CCC(N)=O)C(=O)N[C@@H](CCC(=O)O)C(=O)N[C@@H](CCCCN)C(=O)N[C@@H](CCC(N)=O)C(=O)N[C@@H](CCCCN)C(=O)N[C@@H](CCCCN)C(=O)N[C@@H](CCC(N)=O)C(=O)N[C@@H](CCCNC(=N)N)C(=O)N[C@@H](CCC(=O)O)C(=O)N[C@@H](CCC(N)=O)C(=O)N[C@@H](C)C(=O)N[C@@H](CCC(=O)O)C(=O)N[C@H](C(=O)N[C@@H](CC(N)=O)C(=O)NC(C)(C)C(=O)N[C@@H](CCC(N)=O)C(=O)N[C@H](C(=O)N[C@@H](CC(C)C)C(=O)N[C@@H](C)C(=O)N[C@@H](CCC(N)=O)C(=O)N[C@H](C(N)=O)C(C)C)[C@@H](C)CC)[C@@H](C)O)[C@@H](C)CC)[C@@H](C)CC)C(C)C)C(C)C
In test [1], B4 registered an EC50 [nM] (cAMP) of 0.09 nM. In the test with CRF1R receptor, the “EC50” value stood at 73.4 nM and the “Emax (% I)” value is 70%.
